Values quoted from earlier work in article PMC3245798.

Biological target: SLAM (Homo sapiens) (UniProt Q13291)
Conditions: cited from earlier work

Chain of UniProt Q13291 (Q13291 21-335): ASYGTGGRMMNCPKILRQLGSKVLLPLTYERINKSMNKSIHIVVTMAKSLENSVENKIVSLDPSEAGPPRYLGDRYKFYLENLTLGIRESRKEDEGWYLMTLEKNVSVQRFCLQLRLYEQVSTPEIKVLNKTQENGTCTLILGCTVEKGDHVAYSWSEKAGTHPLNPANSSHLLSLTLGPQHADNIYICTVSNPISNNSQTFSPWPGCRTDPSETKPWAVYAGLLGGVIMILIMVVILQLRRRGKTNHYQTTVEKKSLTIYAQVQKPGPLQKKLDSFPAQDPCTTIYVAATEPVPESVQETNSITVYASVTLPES

In the case of “measles virus hemagglutinin (H) (from UniProt P08362)”, the Kd is given as 80 nM.
